This is an account of results in a protein production outcome set (Wang et al. 2014).
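Further: failed if final PepcDB status was selected cloned or expressed and not failed if soluble or beyond.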

This data set in a line: label from the status in PepcDB records.
As to “MSAIDSQLPSSSGQDRPTDEVDRILSPGKLIILGLQHVLVMYAGAVAVPLMIGDRLGLSKEAIAMLISSDLFCCGIVTLLQCIGIGRFMGIRLPVIMSVTFAAVTPMIAIGMNPDIGLLGIFGATIAAGFITTLLAPLIGRLMPLFPPLVTGVVITSIGLSIIQVGIDWAAGGKGNPQYGNPVYLGISFAVLIFILLITRYAKGFMSNVAVLLGIVFGFLLSWMMNEVNLSGLHDASWFAIVTPMSFGMPIFDPVSILTMTAVLIIVFIESMGMFLALGEIVGRKLSSHDIIRGLRVDGVGTMIGGTFNSFPHTSFSQNVGLVSVTRVHSRWVCISSGIILILFGMVPKMAVLVASIPQFVLGGAGLVMFGMVLATGIRILSRCNYTTNRYNLYIVAISLGVGMTPTLSHDFFSKLPAVLQPLLHSGIMLATLSAVVLNVFFNGYQHHADLVKESVSDKDLKVRTVRMWLLMRKLKKNEHGE”, the protein production entry was “failed”. For the sequence “MESLPVLGVFFMVKTANVAVMPLFPRSQYRIIGQIGQGQFGRVYCAIHRTTGKMYALKDLEHRVFPTNKFLRELSYLLTLRHPNIVACHGLEYHPGGRYLVMDYCEGGTLRDIIDGDGDLCLAGKIDLLRQILLGLAQAHQHDIVHCDLKPENILLIPRAEGWQVKVSDFGIARLTAKTGNPNFSKGYTGSPAYMAPERFYGKFSVASDIYAVGILLYELIVGDRPFSGFPKALQAAHLNVRLTLPPEFPPLLAPIVQRALEKLPQRRFPNATAMASDLATVQKQILEQDPPRGNGYLYHHLAPAPLAFTATVKHSTPLLFPISHLTGAGLWLYLGNGAELYLWEYGDGNVEHHPLPRWALGLPGTIANLEVNQDQISLLIQGGEPGEWQFYQWRETLLGALSLPKPRINLRAERLLANLSPGGKTLAVVVGDRDSEKGHFQLWRTDHSLPVAAAVVIRWPDQLLTLDQNHGLLVQSQSTASYCHTIFFLFNRRGSLFPAFRLSFLVFQLVVNRYSRNHLFGLADNAPYTGILIRLQPLKVNRIALTIQPQFIEPFPWGYLLADRHGEVALLDYEGFLFGNFSLGETITAIAPMGRYLCLFATWQGNGGTLRLLDLGPQVENIIRQRQEKR”, the protein production entry is “failed”.

Consider “MRAFDAYKILDEQEAGSLIDLIAPCMDDYLYIIDLKNDTLRISQSAVERFMLPDKFMNDATKHLRTLVYEKDRKLLENHKRKIYDGKEKRYNVLCRLMNSKNLPVWINCRGEVINDEAGKPRYIIGCMNETGTRQRADNISGLLGEKEMASYLYSQPKEKLSGYFIQIGIDDFGIINNVQGQIYGNYILKRVAECIAECLSSGQRIYHLVTDKYMLVDMLSKSQDDVVQLFKRIGEKIDEFIVDENYKSIFSISAGVTDISTLAEDAIECRKKSDFSLKCAKKRGGGSLYFFEEEDYKVSLRKNTILSALRSATVNDFEGFEVYYQPILDSADRIIGAEALLRFFMHSDEGDEMISPVEFIPLLEKSRLIIPVGEFVLNEAAKMCREMQQYIADFRVNINVSYIQIMRGSMANKILTAIRANNLRPESICIEMTESGFMDMTPCFCSFRKKLDENNIQFIIDDFGTGYSNLRYISEMNPDYVKIDKDFTARAMSSEKDYELFRKIIEMVHSINIKICIEGIEKEEWACAMKEIHVDYMQGYLYGRPCEKGVFLNNYGI”, for which the protein production entry was “failed”.

As for “MDAAVIVPAYNEAESLARCLAPFESQPVELVVVVGGDDGTEQVARDTPFVDTVVRCDEGGAGIARNRGAAAATAPILLFTDADTVVPEDWVRLHLRHYADDEVIGVGGPARPLEDSLKHRVLFKLLSDYWYRVSWPLGFVQQPGFNCSFRADAFKAAGGFNEDIPFMEDTELSLRMKDYGRIVYDADSCVATSARREADEGYVSLFAKYVRGYANHYILRREFDADYFLEHHHHHH”, the protein production result is recorded as “failed”. For “MGCVFTNFRLRRSQTPKAKTPMIFEKQDYQQECIYNIITLLDGFDFKRHDALNLKDCLNQFHAACEIPVKNVSGKLNVDVLMETGTGKTFTYLNLIFALHKAYGQNKFIIFVPRKAILESVKQNIRLTKDYFYLEFKRHLKTYTYEGVKSPSNIINHYIKNQDELSVLLLTNSAIDKEGNILNKNSENLFNTKSIFENIADLKPISIIDEPHLLKGEAFGKYFGKIGALYFRFGATFAKEKEHALSNVAFCLDSISAFRNYLVKQIRIHSVMQDAQSPFLLNADSKSAKIAFYKAGILKQITLSKGEDLGKINASFNGVSLVKTAKDKAYLSNGATLEKASYKLAQDEISALLEKAIDLHFEKEAFLFDQNIKALSLFFIPKIEDFRQIDNKGTPFIKTEFERLYKLKRASILARENLSPSYKEYLKRDFDESGNLRVHQGYFSGDSVALNKGKKESKKEDIEANDIKMILSEKEKLLSFQTPLRFIFSVWALQEGWDNPNIFTLIKLANSTSETSRHQQVGRGLRIAINQEGKRVTHGFLKGNDNAFYKINYLDMLVSGEEVGFIEGLQKEIEASSFIGGGNALDREDLAKLGLNEREINKLFVELENSNALEFDETNNAYKIIAPICETMQNNEERIKDFLSDEEYHAVLSAFKMAENPTNKRDQIINANQPQEKVKIRQNLAKEFKELWQTINAQSQLSYQNIQKTKLIESIAKAFNESHVSAEVIKFESKRYDPQTNRIITEQSSTLKIRDYANALQKEINALLLDFAKDERLPLKFTLELYNALNKEHFTNSPKKAFKLLKGIIKDKLHENLLSCVSYGFCQNAFSNTAFDKTDPLYCEDGSPKNEIEKHKIGKYKSAQTPSPNYLYETIIYDSKIEEEVSEEGVQTLEGKSIEVFAKLPKFKIPTPYKNYEPDFAYLLKDEKGAKIFFVCETKGYEKESDIPPDEKRKIEYAKKFFETLSQNLKNAKKEIRVVFATRINKQDLFNTLKNALKETP” the value was “failed”. With “MSKGTTSQDAPFGTLLGYAPGGVAIYSSDYSSLDPQEYEDDAVFRSYIDDEYMGHKWQCVEFARRFLFLNYGVVFTDVGMAWEIFSLRFLREVVNDNILPLQAFPNGSPRAPVAGALLIWDKGGEFKDTGHVAIITQLHGNKVRIAEQNVIHSPLPQGQQWTRELEMVVENGCYTLKDTFDDTTILGWMIQTEDTEYSLPQPEIAGELLKISGARLENKGQFDGKWLDEKDPLQNAYVQANGQVINQDPYHYYTITESAEQELIKATNELHLMYLHATDKVLKDDNLLALFDIPKILWPRLRLSWQRRRHHMITGRMDFCMDERGLKVYEYNADSASCHTEAGLILERWAEQGYKGNGFNPAEGLINELAGAWKHSRARPFVHIMQDKDIEENYHAQFMEQALHQAGFETRILRGLDELGWDAAGQLIDGEGRLVNCVWKTWAWETAFDQIREVSDREFAAVPIRTGHPQNEVRLIDVLLRPEVLVFEPLWTVIPGNKAILPILWSLFPHHRYLLDTDFTVNDELVKTGYAVKPIAGRCGSNIDLVSHHEEVLDKTSGKFAEQKNIYQQLWCLPKVDGKYIQVCTFTVGGNYGGTCLRGDESLVIKKESDIEPLIVVKK”, the protein production entry was “failed”.

Regarding “RSAHLRVRQLPHAPEHPVATLSTVERRAINLTWTKPFDGNSPLIRYILEMSENNAPWTVLLASVDPKATSVTVKGLVPARSYQFRLCAVNDVGKGQFSKDTERVSLPE”, the protein production result is on record as “not failed”. Regarding “MPGLPEVAPGDDLAKLIAAVEPGLVDGDVLLVTSKIVSKAEGRIVRADDREAAIDAETVRVVARRGALRIVENRQGLVMAAAGVDASNTPSGTVLLLPEDPDASARAIRDGLRDTLGVDVGVVVTDTFGRPWRTGLTDVAIGAAGVRVLDDLRGGTDAYGNPLSATVVATADELAAAGDLVKGKAAGLPVAVVRGLPHVIAGDDEAGARAMVRGGRDDMFRLGTSEAVREAVTQRRTVRAFTDEPVDPGAVRRAVAAAVTAPAPHHTTPWRFVLLESAESRTRLLDAMRDAWIADLRGDRKTEESIAKRVRRGDVLRNAPYLVVPCMVMDGSHSYGDARRDAAEREMFVVATGAGVQNFLVALAGERLGSAWVSSTMFCRDVVRRALGLPESWEPMGAVAVGHAAEEPRDRPARDAGAFIEVRLEHHHHHH”, the protein production entry was “not failed”.

As to “MFERFTDRARRVIVLAQEEARMLNHNYIGTEHILLGLIHEGEGVAAKALESMGISLDAVRQEVEEIIGQGSQPTTGHIPFTPRAKKVLELSLREGLQMGHKYIGTEFLLLGLIREGEGVAAQVLVKLGADLPRVRQQVIQLLS”, the protein production entry is reported as “not failed”. For “LKYMYKIDDDKKYILYCPTWRGNQRKEVTQINLKDLLKYLPENYEIIVKLHPNESHLRTRYNQIDNRIHCYFNELVDIQELYILSECMITDYSSTIFDYIHLNKPVFILQEDEQQYKQSVGFYFDLFEVGDFLKASLNERMLAKQICSTDYINYSKVVHRLMKQDSSKSSEKLMAEILG” the value was “failed”; for “MKFAVAVSGDRVNGPGESEEVQIYETDGGNVRLIEKYSNPALNATAARGVFMLKSALDHGANALVLSEIGSPGFNFIKNKMDVYIVPEMPVADALKLILEGKVSPATAPTHDHGHHH”, “not failed”.

Regarding “MTRQRNREGLEFTAANAQAVEAFDETVKRYLQFHGDIGGALKATFAHDAQMPMALILRGYFYLLMGLRPLADKAAQLAAGLQPGRAALTEREQRHLDALACWSRDSLQAATEHWERIARAHPRDILAVKMAHFGYFYLGRSARIRDGIAQAIDSWSEDDALYPYMLSMMAFGQVEAGELARGEASGRRALELTPHDPWAVHAVAHALEPTDRKADALAWIARHERHWSEANNFRHHIHWHRALIHLEQGDAQAALDWYDRTVFAADSVEYLDVCNEASLLMRLELSGVDVGRRWEAVAQKSAARIDDQVMGFADVHYAMALCSSANPEHRQQAQALAERLERYSQGGTDNAQAYRQAVVPIVGALLAFRQGRYRESADALLACADVAHAAGGSHDQRDVYEYLTAEALFRAAPAHPDTIAYLARRSFRAPHNPHNWRLYLQSLEQSGQDRTLAAATARRQAAAHATA”, the protein production result is “failed”. Next, “RGLRRGTLRIGSFGPTSSMRLLPALLARYRQQYPGIEVHIDEGPDEQVLQWLLERRVDIAFAVLPDPRFVCCPLVEDQMVAVLPAGHRLADRPRVTLAELCGEPFALSGAGSAELVMRLFQAARLQPNIRYRCGQLLSTLDTVARG”: “failed”. Next, “MQPYEKYLKLNSQKLRADQTDTERKLWQRINRDQLLGFRFNRQKPLLSYIVDFYCAKTKLIIELDGSQHYKPDYQEKDALRDAELNSLGFTVMRFSNDEVMREIEAVVEQIYLFLENVRTD”: “failed”; “MDKVYLTWWQVDRAIFALAEKLREYKPDVIIGVARGGLIPAVRLSHILGDIPLKVIDVKFYKGIDERGEKPVITIPIHGDLKDKRVVIVDDVSDTGKTLEVVIEEVKKLGAKEIKIACLAMKPWTSVVPDYYVFRTEKWIVFPWEEFPVIEKE”: “not failed”; “HDVIFHIRAKGKNQKLLLSAHPSYSRVHITAQAYENPSEPPMFCMLLRKHIEGGFIEKIEQAGLDRIMIFHIKSRNEIGDETVRKLYVEIMGRHSNIILTDAAENVIIDGLKHLSPSMNSYRTVLPGQDYKLPPAQDKISPLEASEDDILRHLSFQEGRLDKQIVDHFSGVSPLFAKEAVHRAGLANKVTLPKALLALFAEVKEHRFIPNITTVNGKEYFYLLELTHLKGEARRFDSLSELLDRFYFGKAERDRVKQQAQDLERFVVNERKKNANKIKKLEKTLEYSENAKEFQLYGELLTANLYMLKKGD”: “failed”. Next, “MSGSKTSAEKKESETEKSSDIAQVKIKDVSYTLPSKYDKSTSDDQLVLKVNVAVKNTGKDPLNVDSMDFTLYQGDTKMSDTDPEDYSEKLQGSTINADKSVEGNLFFVVDKGKQYELNYTPESYGDKKPKSVTFKIDGKDKKILATADKLQDSAKALSAYVDVLLFGKDNADFEKITGANKNEIVNDFNESAKDGYLSASGLSSTYADSKALDNIVNGIKEGLSKNSSIQAKTTSISKDEAIVEATVKPVDASSLSDRIEDKVKDYYSKNSSASYEEAVKYALQVYPEEFKKLGPASSEKTVEVKMKKNDIDQWQLDMDDYRAAELVEAFIKELEHHHHHH”: “not failed”.
